Measurements: PMC13152641

What was measured:
CICmin18 R1512H = CICmin18 R1512H (human, UniProt Q96RK0-2 188-280+=F+1457-1527, R1512H;internal_change); assay: MST
CICmin18 R1515H = CICmin18 R1515H (human, UniProt Q96RK0-2 188-280+=F+1457-1527, R1515H;internal_change); assay: MST
CICmin31 R215W = CICmin31 R215W (human, UniProt Q96RK0-2 188-294+1457-1527, R215W;internal_change); assay: MST
CICmin31 M1519D = CICmin31 M1519D (human, UniProt Q96RK0-2 188-294+1457-1527, M1519D;internal_change); assay: MST
CICmin31 WT = CICmin31 WT (human, UniProt Q96RK0-2 188-294+1457-1527, internal_change); assay: MST
CICmin31 R1515H = CICmin31 R1515H (human, UniProt Q96RK0-2 188-294+1457-1527, R1515H;internal_change); assay: MST
CICmin31 R201W = CICmin31 R201W (human, UniProt Q96RK0-2;Q96RK0-2, R201W); assay: MST
CICmin18 WT [1] = molecular target: T1, CICmin18 WT (human, UniProt Q96RK0-2;Q96RK0-2); assay: MST
CICmin18 M1519D = CICmin18 M1519D (human, UniProt Q96RK0-2 188-280+=F+1457-1527, M1519D;internal_change); assay: MST
CICmin18 WT [2] = molecular target: T1, CICmin18 WT; assay: EMSA
CICmin31 WT (IVT) = CICmin31 WT (IVT) (human, UniProt Q96RK0-2 188-294+1457-1527, internal_change); assay: EMSA
CICmin31 R201W (IVT) = CICmin31 R201W (IVT) (human, UniProt Q96RK0-2 188-294+1457-1527, R201W;internal_change); assay: EMSA
CICmin18 WT [3] = molecular target: T1, CICmin18 WT; assay: X-ray crystallography 2.95 A

B1: ETV5 30-mer (MST) (dsDNA)
DNA 1: GGCGTTTTTTATGAATGAAAAACGTCCTCC
DNA 2: GGAGGACGTTTTTCATTCATAAAAAACGCC
- apparent K (half saturation) (CICmin18 R1512H): 14.6 nM
- apparent K (half saturation) (CICmin18 R1515H): 16.7 nM
- apparent K (half saturation) (CICmin31 R215W): 151 nM
- apparent K (half saturation) (CICmin31 M1519D): 32.2 nM
- apparent K (half saturation) (CICmin31 WT): 226 nM
- apparent K (half saturation) (CICmin31 R1515H): 1430 nM
- apparent K (half saturation) (CICmin31 R201W): 171 nM
- apparent K (half saturation) (CICmin18 WT [1]): 15.5 nM
- apparent K (half saturation) (CICmin18 M1519D): 50.3 nM

B2: random-site 30-mer (EMSA) (dsDNA)
DNA 1: GGCGTTTTTTAGTCGCTGCAAACGTCCTCC
DNA 2: GGAGGACGTTTGCAGCGACTAAAAAACGCC
- binding result (CICmin18 WT [2]): no binding
- binding result (CICmin31 WT (IVT)): no binding

B3: ETV5 30-mer (EMSA) (dsDNA)
DNA 1: GGCGTTTTTTATGAATGAAAAACGTCCTCC
DNA 2: GGAGGACGTTTTTCATTCATAAAAAACGCC
- binding result (CICmin31 R201W (IVT)): binds

B4: ETV5 18-mer (crystal) (dsDNA)
DNA 1: GGTTATGAATGAAAAACC
DNA 2: GGTTTTTCATTCATAACC
- binding result (CICmin18 WT [3]): binds
